From the nanobody polyreactivity screen of Harvey et al. (2022) come the findings set out here.

A short description of this series: yeast display, Sf9 membrane polyspecificity reagent, FACS + sequencing; frameworks hold sequencing errors. Put shortly:
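A nanobody's polyreactivity label depends on the gate it was sorted from. Yeast display cells were stained with 10% biotinylated, detergent-solubilized Sf9 membrane reagent for 1 hour at 4 °C, enriched on streptavidin microbeads and sorted by FACS. The low and high (top ~1%) gates were set on anti-HA fluorescence for expression and streptavidin fluorescence for reagent binding.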
Consider “QVQLEESAGGLVQAGGSLRLSCAASGFTLYYYSMGWYRKAPGKERELVAAIAVSGTSTYYADSVKGRFTISRDNAKNTVYLQMNSLKPEDTAVYYCNKVFRVYQTFKAWGRDYWGQGTQVTVSS”, for which the “polyreactivity (PSR sort gate)” value is listed as “high polyreactivity”. “QVQLEESAGGLVQAGGSLRLSCAASGSSFTSYAMGWYRQAPGKERELVAAITSGGSTTYADSVKGRFTISRDNEKNTVYLQMNSLKPEDTAVYYCNAKWYGYLTRDAYRYRYTYDYWGQGTQVTVSS”: the “polyreactivity (PSR sort gate)” value is on record as “low polyreactivity”. The result for “QVQLEESAGGLVQAGGSLRLSCAASGSTFYLNAMGSYRQAPGKERELVAAITVSGGSTYYADSVKGRFTISRDNAKNTVYLQMNSLKPEDNAVYYCARELLSPTYQRWYYYWGQGSQVTVSS” reads “low polyreactivity”. The result for “QVQLEESGAGLVQAGGSLRLSCAASGRIFTVYAMGWYRHAPGKEREFVAAIRSSGGRTYYADSVKGRFTISRDNEKNTVYLQMNSLNPEDTAVYYCAASVTGPSGADYYYWGQGTQVTVSS” reads “high polyreactivity”; that for “QVQLEESGARIVQAGGSLRLSCAASGITLAGYVMGWYRQAPGKERELVADISSSGDSTYYADSVNGRFTISRDNAKNTVYLQMNSLKPEDTAVYYCAAEEIIPLIYKGYPFDYWGQATQVTVSS”, “low polyreactivity”; that for “QVQLEESGGCLVQAGGSLRLICAASGSTFDANAMGWYRQAPGKERELVATISDGGSTNYADSVKGRFTISRDNAKNTVYLQMNSLKPEDTSVYYCAALWYYGGKSACPGGGYWGQGTQVTVSS”, “low polyreactivity”. The result for “QVQLEESGGCLVQEGGSLRLSCAASGIIFTSNTLGWYRQAPGKEREFVASINWNGSSTYADSVKGRFTISRDNAKNTVYLQMNSLKPEDTAVYYCNADYNRNSVQFSLYDYWGQGTQVTVSS” reads “low polyreactivity”; that for “QVQLEESGGGIVQAGGSLRLSCAASGSIIILYAMGWSRQAPGKEREFVAAITWSGGSTYYADSVKGRFTISRDNAKNTVYLQMNSLKPEDTAVYYCAARIRTVAHVDYDYWGQGTQVTVSS”, “high polyreactivity”. With “QVQLEESGGGLDQAGGSLRLNCAASGLISVYYVRGWYIQAPGKELELVAAINRSGGNTYYADSVKGRFTISRDNAQNTVNLQMNRLKPDVTAVYYCKASLYFYRYGHDYESDYWGQGTQVTVSS”, the “polyreactivity (PSR sort gate)” value was “high polyreactivity”. “QVQLEESGGGLFQAGGSLRLICAASGRICDVNAMGWYRQAPGKERELVAAISWSGGITYYADSVKGRFTISRDNAKNTVYLQMNSLKPEDTAVYYCAADKYQGYTFYQGYPGGGGYWGQGTQVTVSS”: the “polyreactivity (PSR sort gate)” value is “low polyreactivity”.

“QVQLEESGGGLFQAGGSLRLSCAASGLNFGQNVMGWYRQAPGKERELLAAIRESGGRTYYADSVKGRFTISRDNAKNTFYIQMNSLNPEDTAVYYCRAYWRYSRYDYWGQGTQVTGSS”: the “polyreactivity (PSR sort gate)” value is “high polyreactivity”. The result for “QVQLEESGGGLFQAGGSLRLSCAASGRIFDPYAMGWYRQAPGKERDLVATITLRGGITYYADSVKGRFTISRDNAKNTVYLQMNSLKPEDTAVYYCAKKVRSYVRWEYDYWGQGTQVTVSS” reads “low polyreactivity”; that for “QVQLEESGGGLVQAGGILRFSCAASGYTFRGYAMGWYRQAPGKEREFVAAIRNSGDSSYYADSVKGRFTISRDNAKNTVYLQRHSLKPEDTAVYYSAAYSRSSKYDYWGQGSQVTVSS”, “low polyreactivity”; that for “QVQLEESGGGLVQAGGILRLSCAASGFIIRRNALGLYRKAAGQERELVATIRASGGRTYYADSVKGRFTISRDNAKNTVYLQMNSVKPEDTAVYYCAAFRWYKPHDYWGQGTQVTVSS”, “high polyreactivity”. In the case of “QVQLEESGGGLVQAGGRLRLSCAASGPIFGYYAMGWYRQAPGKERELVAGIDWSGGNTYYADSVKGRFTISRDNAKYTVYLQMNSLKPEDTAVYYCNTEGGRDTAWYDYWGQGTQVTVSS”, the “polyreactivity (PSR sort gate)” value is “low polyreactivity”. The result for “QVQLEESGGGLVQAGGRLRLSCAASGSIFYVYAMGWYRQAPGKERELVASINKSGGSTYFADSVKGRFTISRDNAKNTVYLQMNSLKPEDTAVYYCAARTGWPRVGFQYPAHVGFDYWGQGTQVTVSS” reads “low polyreactivity”; that for “QVQLEESGGGLVQAGGRLRLTCAASGLTFYANAMGWYRQAPGKERELVATISVGTDSTNYADSVKGRFTISRDNAKNTVYLQMTSMKPEDTAVYYCKALYEEYYAQDPYDYWGQGTQVTVSS”, “high polyreactivity”; that for “QVQLEESGGGLVQAGGSHRLSCAASGITFSLYAMGWYRQAPGKERELVATIDSGGSTNYADSVKGRFTISRDNAKNTVYLQMNSLIPEDTAVYYCAADGVWYYYDMDYWGQGTQVTVSS”, “low polyreactivity”. The result for “QVQLEESGGGLVQAGGSLRISCAASGLIFRTNAIGWYRQAPGKERELVAAISWSTGSTYYADSVKGRFTISRDNAKNTVYLQMNSLKPEDTAVYYCARTLRWTYRYGYWGQGTQVTVSS” reads “high polyreactivity”; that for “QVQLEESGGGLVQAGGSLRISCAASGRTFRRYAMGWYRQAPGKERELVATISRGGSTYYADSVKGRFTISRDNAKNTVYLQMNSLKPEDTAVFYCAAQRQVIYASEENYWGQGTQVTVSS”, “high polyreactivity”. On to “QVQLEESGGGLVQAGGSLRLAVLPPDLPSTLNDMGWYRQAPGKERELVAAITRGGSTNYADSVKGRFTISRDNAKNTVYLQMNSLKPEDTAVYYCAAPYAGWRDGGDYWGQGTQVTVSS”, for which the “polyreactivity (PSR sort gate)” value was “low polyreactivity”. For “QVQLEESGGGLVQAGGSLRLICAASGGTFSYNAMGWYRQAPGKERELVAAISWSGTRTYYADSVKGRFTISRDNEKNTVYLQMNSLKPEDTAVYYCNADSDTPRYDYWGLGTQVTVSS”, the “polyreactivity (PSR sort gate)” value is “low polyreactivity”. The result for “QVQLEESGGGLVQAGGSLRLICAAYGSIIPYNAMGWYRQQPGEFVDAISYSSGSTYYADSVKGRFTISRDNAKNTVYLQMNSLKPEDTAVYYCAAGSWYPPSYVWLRRYDYWGQGTQVTVSS” reads “low polyreactivity”.

With “QVQLEESGGGLVQAGGSLRLSCAASGFIFGPYAMGWYRQAPGKERELVAAMSSSGGSTSYEDSVKGRFTISRDNAKNTVYLQMNSLKPEDTAVYYCAARGRYRLYSNYYDYWGQGTQVNVSS”, the “polyreactivity (PSR sort gate)” value is “high polyreactivity”.

In the case of “QVQLEESGGGLVQAGGSLRLSCAASGFIFSRYDMGWYRQAPGKERELVAAITSGGSTYYADSVKGRFTISRDNAKNTVYLQMNSLKPEDTAVYYCNAYVRSDYDYWGQGTQVTVSS”, the “polyreactivity (PSR sort gate)” value is recorded as “high polyreactivity”. The result for “QVQLEESGGGLVQAGGSLRLSCAASGFIYVKYAMGWYRQAPGKERELVAAITNGGSTYYADSVKGRFTISRDNAKYTVYLQMNSLKPEDTAVYYCAAQYHDWWRRLLYRSFRPFDYWGQGTQVTVSS” reads “low polyreactivity”.

For the sequence “QVQLEESGGGLVQAGGSLRLSCAASGFNFAAYTMGWNRQAPGKEREWVAGISKRGGTTYYADSVKGRFTISRDNAKNTVYLQMNSLKPEDTAVYYCAASRYVTTSRYQYNHWGQGTQVTVSS”, the “polyreactivity (PSR sort gate)” value is “high polyreactivity”. The result for “QVQLEESGGGLVQAGGSLRLSCAASGFTFGFYAMGWYRQAPGKERELVARISYSGGSTYYADSVKGRFTISRDNAKNTVYLQMNSLKPEDTAVYYCNRGYRRLQEDYWGQGTQVTVSS” reads “high polyreactivity”; that for “QVQLEESGGGLVQAGGSLRLSCAASGFTFKRYAMGSYRQAPGKEREFVAAITRGGGSTYYADSVKGRFTISRDNAKNSVYLQMNSLKPEDTAVYYCAADPQYTIRDYWGQGTQVTVSS”, “high polyreactivity”; that for “QVQLEESGGGLVQAGGSLRLSCAASGFTFPTNAMGWYRQAPGKERELVATISLGAGSTHYADSVKGRFTISRDNAKNTVYLQMNSLKPEDTAVYYCAARSRRWYDYDYWGQGTQVTVSS”, “low polyreactivity”. The result for “QVQLEESGGGLVQAGGSLRLSCAASGFTFSLYGMGWYRQAPGKERELVAAIRSGGSTNYADSVKGRFTISRDNAKNTVYLQMNSLKPEDTAVYYCATDIHSVNNNRDKHDYDYWGQGTLVTVSS” reads “low polyreactivity”; that for “QVQLEESGGGLVQAGGSLRLSCAASGFTFSTNSMGWYRPAPGKERELVAAISRGGSTNYADSVKGRFTISRDNAKNTVYLQMNSLKPEDTAVYYCNAYQSPDEEEYYWGQGTQVTVSS”, “low polyreactivity”; that for “QVQLEESGGGLVQAGGSLRLSCAASGFTFYRDTMGGYRQAPGKERELFAAITRDGSTYYADSVKGRFTISRDNAKYTVSLQLNSLKPEDTAVYYWNARGTVPWYGYDYWGQGTQVNVSS”, “high polyreactivity”. The result for “QVQLEESGGGLVQAGGSLRLSCAASGFTFYYYAMGWYRQAPGKERELVAAINTSGGSTYYADSVKGRFTNSRDNAKNTVYLQMNSLKPVDTAVYYCAAVDGFWTQYPRMGYWGQGTQVTVSS” reads “high polyreactivity”.

As for “QVQLEESGGGLVQAGGSLRLSCAASGGTFGQYTMGWYRQAPGKERELVAAISTRGGSTNYADSVKGRFTISRDNAKNTVYLQMNSLKPEDTAVYYCAAKDKGRYYENVGRRGLDYWGQGTQVTVSS”, the “polyreactivity (PSR sort gate)” value is “high polyreactivity”. The result for “QVQLEESGGGLVQAGGSLRLSCAASGGTFYYSPMGWDREPPGKERELVAAIRWRGGNTYYADSVKGRFTISLDNAKNTVYLQMNSVKPEDTAVYYCAAQTHDYNRYVGTTAYDYWGQGTQVTVSS” reads “low polyreactivity”. The result for “QVQLEESGGGLVQAGGSLRLSCAASGIIFGRYAMGWYRQAPGKQRELVAAITSGGSTSYADSVKGRFTISRDNAKNTVYLQMNSLKPEDTAVYYCAVVFVWGWPGYYWGQGTQVTVSS” reads “high polyreactivity”. The result for “QVQLEESGGGLVQAGGSLRLSCAASGIIFRLYGMGWYRQAPGKEREFVATITWRGGRTNYADSVKGRFTISRDNAKNTVYLQMNSLTPEDTAVYYCANVVRYARSNEYDSSGQGTQVTVSS” reads “low polyreactivity”; that for “QVQLEESGGGLVQAGGSLRLSCAASGIIIVRNAMGWYRQAPGKEREFVAAISSSGGSTYYADSVKGRFTISRDNGKNTVYLQMNSLNPEDTAVYNCNARHRQWARGYWGQGTQVTVSS”, “high polyreactivity”. On to “QVQLEESGGGLVQAGGSLRLSCAASGILRDNAMGWYRQAPGKERELVATINGDGSTYADSVKGRFTISRDNAKNTVYLQMNSLKPEDTAVYYCAAPFTTTFDYWGQGTQVTVSS”, for which the “polyreactivity (PSR sort gate)” value is “low polyreactivity”.
